Data from patent US20140017221.

T1: Flag-tagged SOD2
T1 sequence: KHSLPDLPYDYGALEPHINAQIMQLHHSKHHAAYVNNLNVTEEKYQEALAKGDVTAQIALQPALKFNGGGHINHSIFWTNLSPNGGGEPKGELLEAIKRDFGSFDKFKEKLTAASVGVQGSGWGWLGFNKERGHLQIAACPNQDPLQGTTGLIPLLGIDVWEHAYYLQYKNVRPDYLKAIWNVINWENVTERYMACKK

T2: Long-chain acyl CoA dehydrogenase (endogenous, mouse liver), P51174
T2 chain: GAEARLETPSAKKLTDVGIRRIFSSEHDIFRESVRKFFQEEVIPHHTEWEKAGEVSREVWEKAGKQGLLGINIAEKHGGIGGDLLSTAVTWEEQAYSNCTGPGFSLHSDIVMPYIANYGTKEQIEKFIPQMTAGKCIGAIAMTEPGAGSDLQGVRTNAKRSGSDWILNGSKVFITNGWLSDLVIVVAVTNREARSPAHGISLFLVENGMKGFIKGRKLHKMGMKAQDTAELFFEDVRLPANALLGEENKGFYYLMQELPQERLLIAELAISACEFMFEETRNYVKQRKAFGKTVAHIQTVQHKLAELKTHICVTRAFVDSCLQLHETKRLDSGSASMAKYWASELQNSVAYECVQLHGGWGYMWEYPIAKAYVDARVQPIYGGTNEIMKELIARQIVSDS

B1: SIRT3 (endogenous, mouse tissue) (protein)
chain: PISLCVGASGGFGGGGSSEKKFSLQDVAELLRTRACSRVVVMVGAGISTPSGIPDFRSPGSGLYSNLQQYDIPYPEAIFELGFFFHNPKPFFMLAKELYPGHYRPNVTHYFLRLLHDKELLLRLYTQNIDGLERASGIPASKLVEAHGTFVTATCTVCRRSFPGEDIWADVMADRVPRCPVCTGVVKPDIVFFGEQLPARFLLHMADFALADLLLILGTSLEVEPFASLSEAVQKSVPRLLINRDLVGPFVLSPRRKDVVQLGDVVHGVERLVDLLGWTQELLDLMQRERGKLDGQDR

Key:
[1] = system: T1, Flag-tagged SOD2
[2] = system: Flag-tagged SOD2 K53/89R
[3] = system: Flag-tagged SOD2 K53R
[4] = system: Flag-tagged SOD2 K89R
[5] = system: Flag-tagged SOD2 mutant of K122
[6] = system: Flag-tagged SOD2 mutant of K130
[7] = system: Flag-tagged SOD2 mutant of K68
[8] = target: T2, Long-chain acyl CoA dehydrogenase …

Molecule	acetylation levels for SOD2 after immunoprecipitation, western blotting with anti-acetyllysine antibody [1]	enzymatic activity of immunopurified SOD2 (superoxide conversion, colorimetric) [1]	acetylation levels of immunopurified SOD2 mutant [2]	enzymatic activity of immunopurified SOD2 K53/89R (superoxide conversion, colorimetric) [2]	acetylation levels of immunopurified SOD2 mutant [3]	acetylation levels of immunopurified SOD2 mutant [4]	acetylation status of immunopurified SOD2 mutant [5]	acetylation status of immunopurified SOD2 mutant [6]	acetylation status of immunopurified SOD2 mutant [7]	enzymatic activity of LCAD in liver lysates (oxidation of palmitoyl-CoA) [8]
SIRT3-H248Y	SIRT3, but not SIRT3-H248Y, deacetylated SOD2	overexpression of SIRT3-H248Y had the opposite effect								
SIRT3 (co-transfected expression construct)	SIRT3, but not SIRT3-H248Y, deacetylated SOD2	Overexpression of WT SIRT3 decreased the acetylation of SOD2 (FIG. 3D, E, G) and significantly increased its enzymatic activity	SIRT3 co-expression further decreased acetylation levels of K53R and K89R, but not K53/89R	SIRT3 did not further increase its enzymatic activity	SIRT3 co-expression further decreased acetylation levels of K53R and K89R, but not K53/89R	SIRT3 co-expression further decreased acetylation levels of K53R and K89R, but not K53/89R	SIRT3 co-expression reduced acetylation levels of these three SOD2 mutants	SIRT3 co-expression reduced acetylation levels of these three SOD2 mutants	SIRT3 co-expression reduced acetylation levels of these three SOD2 mutants	
B1										we observed a 50% increase in enzymatic activity of LCAD in WT but not SIRT3 KO mice during CR
